Assays:
[1] = target: squid hemocyanin (Todarodes pacificus) (Todarodes pacificus); assay: SAXS; Hc after high hydrostatic pressure at 600 MPa for 20 min; Kratky-type camera; aggregation numbers calculated with SAXS Quant 2.0
[2] = target: squid hemocyanin (Todarodes pacificus) (Todarodes pacificus); assay: SAXS; Hc after high hydrostatic pressure at 200 MPa for 20 min; Kratky-type camera; aggregation numbers calculated with SAXS Quant 2.0
[3] = target: squid hemocyanin (Todarodes pacificus) (Todarodes pacificus); assay: SAXS; Hc after high hydrostatic pressure at 400 MPa for 20 min; Kratky-type camera; aggregation numbers calculated with SAXS Quant 2.0
[4] = target: squid hemocyanin (Todarodes pacificus) (Todarodes pacificus); assay: SAXS; untreated control Hc (0.1 MPa, 25 °C) in solution; Kratky-type camera; aggregation numbers calculated with SAXS Quant 2.0

〈Nagg〉G (Guinier aggregation number) [1]: 16
〈Nagg〉Q (average aggregation number) [1]: 15.2
〈Nagg〉G (Guinier aggregation number) [2]: 11.9
〈Nagg〉Q (average aggregation number) [2]: 12.7
〈Nagg〉G (Guinier aggregation number) [3]: 14.2
〈Nagg〉Q (average aggregation number) [3]: 14.4
〈Nagg〉G (Guinier aggregation number) [4]: 10.2
〈Nagg〉Q (average aggregation number) [4]: 9.3
Substance: squid hemocyanin (Todarodes pacificus) (natural protein)
